From patent publication US20190284299A1 (BEIJING HANMI PHARMACEUTICAL, published 2019)

Experiments:
[1] = target: T1, recombinant human Trop-2 (Sino Biological, Cat. No: 10428-H08H) (human, UniProt P09758 27-274); test: ELISA, recombinant human Trop-2 coated at 1 ug/mL, anti-human IgG-HRP
T1 construct: Coated on the ELISA plate
T1 sequence (looked up): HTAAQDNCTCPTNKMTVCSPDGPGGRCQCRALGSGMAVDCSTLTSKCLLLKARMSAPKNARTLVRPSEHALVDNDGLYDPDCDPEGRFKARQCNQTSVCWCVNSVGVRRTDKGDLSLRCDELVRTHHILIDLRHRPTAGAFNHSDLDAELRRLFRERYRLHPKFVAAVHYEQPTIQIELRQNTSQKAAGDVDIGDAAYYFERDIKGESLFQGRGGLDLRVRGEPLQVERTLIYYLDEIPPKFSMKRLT

[2] = target: T2, Trop-2 on BxPC3 cells (UniProt P09758 27-323, limits assumed); test: flow cytometry of PKH26-stained BxPC3 and CFSE-stained Jurkat cells, as in Example 9
T2 construct: whole, on cells; also called BxPC3 cells with high expression Trop-2
T2 sequence (looked up): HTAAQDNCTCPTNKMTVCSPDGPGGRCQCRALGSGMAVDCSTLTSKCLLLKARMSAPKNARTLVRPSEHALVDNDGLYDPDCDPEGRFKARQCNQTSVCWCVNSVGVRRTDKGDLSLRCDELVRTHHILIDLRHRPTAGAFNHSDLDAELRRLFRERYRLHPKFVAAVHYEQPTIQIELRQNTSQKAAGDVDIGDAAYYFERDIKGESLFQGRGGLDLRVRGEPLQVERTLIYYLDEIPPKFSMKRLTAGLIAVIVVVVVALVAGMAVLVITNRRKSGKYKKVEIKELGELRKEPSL

B1: heterodimeric anti-Trop-2/anti-CD3-scFv bispecific antibody (bispecific antibody)
heavy: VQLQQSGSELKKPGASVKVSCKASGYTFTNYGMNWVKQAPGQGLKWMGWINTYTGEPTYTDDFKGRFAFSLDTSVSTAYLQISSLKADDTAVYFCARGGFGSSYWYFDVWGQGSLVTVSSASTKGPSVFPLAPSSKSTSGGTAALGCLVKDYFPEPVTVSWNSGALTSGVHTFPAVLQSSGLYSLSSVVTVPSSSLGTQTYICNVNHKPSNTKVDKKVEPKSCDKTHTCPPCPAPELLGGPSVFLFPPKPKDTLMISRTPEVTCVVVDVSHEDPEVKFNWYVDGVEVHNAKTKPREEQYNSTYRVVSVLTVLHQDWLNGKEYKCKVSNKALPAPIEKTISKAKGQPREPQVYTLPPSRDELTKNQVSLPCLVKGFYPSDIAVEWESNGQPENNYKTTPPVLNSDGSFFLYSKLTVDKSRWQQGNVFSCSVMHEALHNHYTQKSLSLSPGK
light: DIQLTQSPSSLSASVGDRVSITCKASQDVSIAVAWYQQKPGKAPKLLIYSASYRYTGVPDRFSGSGSGTDFTLTISSLQPEDFAVYYCQQHYITPLTFGAGTKVEIKRTVAAPSVFIFPPSDEQLKSGTASVVCLLNNFYPREAKVQWKVDNALQSGNSQESVTEQDSKDSTYSLSSTLTLSKADYEKHKVYACEVTHQGLSSPVTKSFNRGEC
scFv: not shown
notes: also called anti-Trop2/anti CD3-scFv heterodimer; Anti-Trop-2/CD3 heterodimeric BsAb
binding result [1]: binds
binding result [2]: binds
